Measured values taken from US20170037148A1 (INSERM INSTITUT NATIONAL DE LA SANT ET DE LA RECHERCHE M …, published 2017).
Values joined by “and” are separate entries in the source; they are usually repeats but may differ in a detail not shown here. Equal entries are not always repeated.

B1: recombinant wild-type ADAMTS13 containing a V5- and a His-tag (wt-rADAMTS13) (protein)
chain: AAGGILHLELLVAVGPDVFQAHQEDTERYVLTNLNIGAELLRDPSLGAQFRVHLVKMVILTEPEGAPNITANLTSSLLSVCGWSQTINPEDDTDPGHADLVLYITRFDLELPDGNRQVRGVTQLGGACSPTWSCLITEDTGFDLGVTIAHEIGHSFGLEHDGAPGSGCGPSGHVMASDGAAPRAGLAWSPCSRRQLLSLLSAGRARCVWDPPRPQPGSAGHPPDAQPGLYYSANEQCRVAFGPKAVACTFAREHLDMCQALSCHTDPLDQSSCSRLLVPLLDGTECGVEKWCSKGRCRSLVELTPIAAVHGRWSSWGPRSPCSRSCGGGVVTRRRQCNNPRPAFGGRACVGADLQAEMCNTQACEKTQLEFMSQQCARTDGQPLRSSPGGASFYHWGAAVPHSQGDALCRHMCRAIGESFIMKRGDSFLDGTRCMPSGPREDGTLSLCVSGSCRTFGCDGRMDSQQVWDRCQVCGGDNSTCSPRKGSFTAGRAREYVTFLTVTPNLTSVYIANHRPLFTHLAVRIGGRYVVAGKMSISPNTTYPSLLEDGRVEYRVALTEDRLPRLEEIRIWGPLQEDADIQVYRRYGEEYGNLTRPDITFTYFQPKPRQAWVWAAVRGPCSVSCGAGLRWVNYSCLDQARKELVETVQCQGSQQPPAWPEACVLEPCPPYWAVGDFGPCSASCGGGLRERPVRCVEAQGSLLKTLPPARCRAGAQQPAVALETCNPQPCPARWEVSEPSSCTSAGGAGLALENETCVPGADGLEAPVTEGPGSVDEKLPAPEPCVGMSCPPGWGHLDATSAGEKAPSPWGSIRTGAQAAHVWTPAAGSCSVSCGRGLMELRFLCMDSALRVPVQEELCGLASKPGSRREVCQAVPCPARWQYKLAACSVSCGRGVVRRILYCARAHGEDDGEEILLDTQCQGLPRPEPQEACSLEPCPPRWKVMSLGPCSASCGLGTARRSVACVQLDQGQDVEVDEAACAALVRPEASVPCLIADCTYRWHVGTWMECSVSCGDGIQRRRDTCLGPQAQAPVPADFCQHLPKPVTVRGCWAGPCVGQGTPSLVPHEEAAAPGRTTATPAGASLEWSQARGLLFSPAPQPRRLLPGPQENSVQSSACGRQHLEPTGTIDMRGPGQADCAVAIGRPLGEVVTLRVLESSLNCSAGDMLLLWGRLTWRKMCRKLLDMTFSSKTNTLVVRQRCGRPGGGVLLRYGSQLAPETFYRECDMQLFGPWGEIVSPSLSPATSNAGGCRLFINVAPHARIAIHALATNMGAGTEGANASYILIRDTHSLRTTAFHGQQVLYWESESSQAEMEFSEGFLKAQASLRGQYWTLQSWVPEMQDPQSWKGKEGT
B2: anti-human von Willebrand factor monoclonal antibody 508 (mAb508) (antibody, mouse IgG1, kappa, V domains shown)
VH: DVQLQESGPDLVEPSQSLSLSCTVTGYSITSGYSWHWIRQFPGNKLEWLGYIHYSGTTTYNPSLHSRVSITRDTSKNQFFLQLNSVSTEDTATYFCGREGYHWGQGTTLTVSS
VL: DVVMTQTPLSLPVSLGDQASISCRSSQSLVHSIGNTYLHWYLQKPGQSPKLLIYKVSNRFSGVPDRFSGSGSGTDFTLKISRVEAEDLGVYFCSQTTHVPLTFGGGTRLEIKR
notes: Murine monoclonal antibody purified from hybridoma; also called antibody mAb508

What was measured:
[1] = molecular target: recombinant wild-type ADAMTS13 containing a V5- and a His-tag (wt-rADAMTS13) (human) (UniProt Q76LX8); experiment: competition immuno-sorbent assay, fragment 10 nM pre-incubated with wt-rADAMTS13, immobilized pd-VWF
[2] = molecular target: recombinant wild-type ADAMTS13 containing a V5- and a His-tag (wt-rADAMTS13) (human) (UniProt Q76LX8); experiment: cell-based or functional assay
[3] = molecular target: purified plasma-derived von Willebrand factor (pd-VWF), P04275
[4] = molecular target: T1, purified plasma-derived von Willebrand factor (pd-VWF) (human, UniProt P04275 764-2813); experiment: competitive immuno-sorbent assay, mAb508 0 to 50 µg/ml against ADAMTS13 (4 µg/ml) on coated VWF (2 µg/ml)
T1 construct: mature; Multimeric plasma protein; also called full-length VWF; globular full-length VWF

[5] = molecular target: T1, purified plasma-derived von Willebrand …; experiment: BLI (Octet-QK), equilibrium responses, mAb508 on protein A biosensors, pd-VWF in solution, single class of binding sites
Procedure: Subsequently, biosensors were incubated with various concentrations purified pd-VWF (0-0.2 mg/ml) and association of VWF was monitored real-time for a 10-min period until equilibrium was reached. Data represent mean±SD of four independent associations and depicted are the calculated responses (shift in nm) at equilibrium versus VWF concentration. The drawn line represents the best fit using a model describing the interaction of a single class of binding sites.
Biolayer interferometry-analysis: Equilibrium binding assays were performed via biolayer interferometry (BLI)-analysis using Octet-QK equipment (ForteBio, Reading, UK) essentially as described (26). […] Biosensors were then incubated for 5 min in BLI-buffer to achieve stable baseline, and subsequently incubated with various concentrations of pd-VWF in BLI-buffer for 10 min. All incubations were performed at room temperature under continuous shaking (1000 rpm). Data were analyzed using Octet Software version 4.0.

Row | Molecule | inhibition of ADAMTS13 binding to immobilized VWF [1] | also measured
1 | A1-Fc (from UniProt P04275 1261-1478) (Fc fusion) | < 20% | 
2 | A2-Fc (from UniProt P04275 1480-1672) (Fc fusion) | 65% | residual proteolysis of VWF by ADAMTS13, vortex-based degradation assay, A2-Fc 1 µg/ml [2]: 96%
3 | A3-Fc (from UniProt P04275 1681-1878) (Fc fusion) | < 20% | 
4 | D4-Fc (from UniProt P04275 1947-2301) (Fc fusion) | < 20% | 
5 | D′D3-HPC4 (from UniProt P04275 764-1247) | < 20% | 
6 | B1 |  | proteolytic cleavage of pd-VWF (30 µg/ml) by recombinant ADAMTS13 (3 µg/ml), vortex-based degradation assay [3]: proteolytic cleavage of pd-VWF (30 µg/ml) by recombinant ADAMTS13 (3 µg/ml) increases as a function of incubation time, with maximal degradation obtained after 30 min
7 | B2 |  | IC50 [4]: 0.09 µg/mL; Kd [5]: 13 µg/mL and 52 nM
